Target: modified calcium-permeable rat GluA2flip subunit with Q586 at the Q/R site (GluA2*), as the GluA2 portion of the GluA2–γ2 fusion (rat) (UniProt P19491)
Assay: cryo-EM structure; purified GluA2–γ2 fusion in 150 mM NaCl, 20 mM Tris-HCl pH 8.0, 0.05% digitonin, supplemented with 20 µM Glu and 100 µM CTZ; seven LBD–TMD reconstructions (NNNN, GNNN, GNGN1, GNGN2, GGNN, GGGN, GGGG)

stoichiometry N: 4
Substance: modified calcium-permeable rat GluA2flip subunit with Q586 at the Q/R site (GluA2*), as the GluA2 portion of the GluA2–γ2 fusion (from UniProt P19491-2 22-883) (receptor)
